Experimental findings from patent US20070286935A1, “Bioactive Compositions, Natural Methods of Producing Them and Computational Methods for Designing Natural Production Processes” (NESTEC S.A., priority 2004, published 2007) are described below.

The target of one test is T1, Y2-GPCR (Homo sapiens, UniProt P49146).
T1 sequence (P49146 1-381): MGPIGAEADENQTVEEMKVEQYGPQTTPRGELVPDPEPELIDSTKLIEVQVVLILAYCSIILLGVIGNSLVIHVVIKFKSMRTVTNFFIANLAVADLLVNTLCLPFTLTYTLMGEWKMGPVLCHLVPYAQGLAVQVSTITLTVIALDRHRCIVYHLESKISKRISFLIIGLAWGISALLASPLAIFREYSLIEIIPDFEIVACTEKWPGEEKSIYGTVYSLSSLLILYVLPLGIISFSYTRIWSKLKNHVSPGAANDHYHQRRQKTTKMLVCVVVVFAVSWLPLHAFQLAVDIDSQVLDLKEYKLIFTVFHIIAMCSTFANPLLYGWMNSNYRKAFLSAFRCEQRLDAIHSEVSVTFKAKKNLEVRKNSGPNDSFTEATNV
As to the kind of experiment: competitive binding assay against PYY22-36 on Y2-GPCR. How it is done: The peptides derived from the proteins AtRGP2, OsRGP1 and OsBiP were synthesized in 5 mg quantities at and purified to a purity of above about 90%. The peptides were tested in a competitive binding assay against PYY^22-36 for binding to the GPCR receptor.
In-vitro receptor-based screening of receptor subtypes Y1, Y2, and Y3 was performed according to protocols known in the art. (Munoz et al., Mol. Cell. Endocrinol. 107, 77 (1995), Fuhlendorf et al., PNAS 87, 182 (1990)) Screening of OsBiP, ZmRGP1 and AtRGP1 was conducted on Y2-GPCR as described above using known methods and activity was measured as the percentage of inhibition of binding of the endogenous ligand PYY^22-36 sequence. The PYY^22-36 sequence was used as a positive control. Of the peptides tested, the one derived from AtRGP1 protein was able to inhibit binding of PYY^22-36 by 20-40% when 10 μM concentration of both the PYY^22-36 and OsBiP peptide were used in the binding assay. […] In vivo tissue-based screening on cultures of rat colon cells can be carried out according to known protocols, such as described in Dumont et al., Eur. J. Pharmacol. 238, 37 (1993).

Test [1] addresses T2, CCK-B GPCR receptor (human) (UniProt P32239).
T2 sequence (looked up): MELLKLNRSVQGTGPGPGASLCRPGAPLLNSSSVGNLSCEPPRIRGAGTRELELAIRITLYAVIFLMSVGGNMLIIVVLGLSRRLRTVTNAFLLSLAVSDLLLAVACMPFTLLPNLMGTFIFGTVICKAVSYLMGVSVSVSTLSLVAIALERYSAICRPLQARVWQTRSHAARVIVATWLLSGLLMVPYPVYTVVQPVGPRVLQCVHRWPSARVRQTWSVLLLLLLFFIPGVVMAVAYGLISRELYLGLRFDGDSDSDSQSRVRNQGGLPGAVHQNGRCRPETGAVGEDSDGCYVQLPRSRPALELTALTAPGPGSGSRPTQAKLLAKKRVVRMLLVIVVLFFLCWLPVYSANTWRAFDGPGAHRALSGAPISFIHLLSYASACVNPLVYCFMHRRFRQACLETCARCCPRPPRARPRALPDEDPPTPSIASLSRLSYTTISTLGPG
As to the kind of experiment: competitive receptor binding assay against CCK-8 on CCK-B receptor, synthetic peptide at 10 µM.

A further test concerns the target T3, Y2 GPCR receptor.
T3 sequence (P49146 whole entry, species assumed, looked up): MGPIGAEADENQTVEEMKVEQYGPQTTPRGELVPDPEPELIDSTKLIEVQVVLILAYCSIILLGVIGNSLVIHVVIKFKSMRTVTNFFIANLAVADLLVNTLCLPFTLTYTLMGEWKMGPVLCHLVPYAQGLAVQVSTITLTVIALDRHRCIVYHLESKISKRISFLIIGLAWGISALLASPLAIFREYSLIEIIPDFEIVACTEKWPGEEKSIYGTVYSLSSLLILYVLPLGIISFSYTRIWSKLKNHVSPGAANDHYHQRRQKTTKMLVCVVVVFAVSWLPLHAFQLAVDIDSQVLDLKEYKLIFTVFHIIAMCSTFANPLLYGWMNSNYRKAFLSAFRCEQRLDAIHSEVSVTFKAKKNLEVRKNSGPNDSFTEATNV
As to the kind of experiment: competitive receptor binding assay on Y2-GPCR against PYY22-36, 10 µM of both peptides.

For FDGVDFSEPLTRARF [OsBIP], the “binding to the Y2 receptor” value in the test with Y2-GPCR (same technique, result in words) is given as “shown to bind the Y2 receptor”.

In the case of “YSCRYFGYLVSKKKY (listed as Arabidopsis thaliana) [AtRGP1, peptide derived from Arabidopsis thaliana amylogenin protein RGP]”, the “percentage of inhibition of binding of the endogenous ligand PYY22-36” value with Y2-GPCR (10 μM concentration of both PYY22-36 and test peptide, Y2-GPCR) is on record as 20-40%.

B1: Oryza sativa oryzacystatin hydrolyzed with trypsin - synthetic peptide 3 (…) (peptide)
peptide: PWMDFKELQEFK
B1 displayed a percent inhibition of binding of CCK-8 in test [1] of 5%.

B2: AtRGP2 peptide fragment (peptide derived from Arabidopsis thaliana amylogenin protein RGP) (peptide)
peptide: YSCRYFGYLVSKKKY
In turn, B2 came in with a percent inhibition of binding of PYY22-36 in the test with Y2 GPCR receptor of 20 to 40%.
